Test results from patent publication US20240084023A1 (NGM BIOPHARMACEUTICALS, published 2024).
Residue numbers refer to the chain shown, from its start. Values belong to the binder of their own block, whether it stands above or below them.

Columns and labels:
[1] = target: T1, soluble human GCGR extracellular domain (human, UniProt P47871 26-136, limits assumed); assay: Octet epitope binning; antibody in solution on GCGR ECD held by immobilized 6B5 (competitor)
T1 construct: also called soluble GCGR
Description: (§1) KD values for exemplary antibodies were derived using ForteBio software. Exemplary antibodies 6B5, 13G19, 14E9, 14F4, 4F8, 1G7, l A8, I H7, 1A2, 1B4, 1C1, 1H2, 1C3, and 1D2 were immobilized on biosensor tips. Soluble human GCGR extracellular domain (500 nM) was incubated with the antibodies for 3 minutes. […] The biosensor tips with bound antibody-GCGR complex were then dipped in 61B5, 5B11, or 3H-15 antibody solution and the change in signal measured as a nm shift. If the antibody in solution recognized the same epitope as the antibody immobilized on the chip surface, then <0.1 nm shift in signal (noise level of Octet) would be observed. If the antibody in solution recognized a distinct epitope relative to the immobilized antibody, an increase in signal of >0.15 nm shift would be observed. In the latter scenario, the antibody in solution could bind to the immobilized antibody-GCGR complex (presumably to a different epitope) resulting in the observed increase in signal.

[2] = target: T1, soluble human GCGR extracellular domain; assay: Octet epitope binning; antibody in solution on GCGR ECD held by immobilized 1H7 (competitor)
Description: as §1

[3] = target: T1, soluble human GCGR extracellular domain; assay: Octet epitope binning; antibody in solution on GCGR ECD held by immobilized 14F4 (competitor)
Description: as §1

[4] = target: T1, soluble human GCGR extracellular domain; assay: Octet epitope binning; antibody in solution on GCGR ECD held by immobilized 1C3 (competitor)
Description: as §1

[5] = target: T1, soluble human GCGR extracellular domain; assay: Octet epitope binning; antibody in solution on GCGR ECD held by immobilized 1G7 (competitor)
Description: as §1

[6] = target: T1, soluble human GCGR extracellular domain; assay: Octet epitope binning; antibody in solution on GCGR ECD held by immobilized 1D2 (competitor)
Description: as §1

[7] = target: T1, soluble human GCGR extracellular domain; assay: Octet epitope binning; antibody in solution on GCGR ECD held by immobilized 1B4 (competitor)
Description: as §1

[8] = target: full-length human GCGR on CHO cells (human, UniProt P47871 26-477); assay: cell-based or functional assay
[9] = target: T1, soluble human GCGR extracellular domain; assay: Octet epitope binning; antibody in solution on GCGR ECD held by immobilized 1A8 (competitor)
Description: as §1

[10] = target: T1, soluble human GCGR extracellular domain; assay: Octet epitope binning; antibody in solution on GCGR ECD held by immobilized 1H2 (competitor)
Description: as §1

[11] = target: T1, soluble human GCGR extracellular domain; assay: Octet epitope binning; antibody in solution on GCGR ECD held by immobilized 14E9 (competitor)
Description: as §1

[12] = target: T1, soluble human GCGR extracellular domain; assay: Biacore SPR, captured antibody, soluble human GCGR extracellular domain as analyte
Description: In some experiments, supernatants were screened for binding to human GCGR using a Biacore SPR system. Briefly, anti-mouse Fc antibody (Sigma-Aldrich) was immobilized on all four flow cells of a CM5 chip using amine coupling reagents (GE Healthcare LifeSciences). Hybridoma supernatants were diluted three-fold with PBS-P buffer (PBS containing 0.005% P20) and injected for 30 seconds overflow cells 2, 3 and 4 to capture the test antibodies and using flow cell 1 as a reference. The next step was an injection of soluble human GCGR extracellular domain (100 nM in PBS-P buffer) at a flow rate of 50 μL/min and monitoring of the binding kinetics at 25° C. Kinetic data were collected over time and fit using the simultaneous global fit equation to yield affinity constants (KD values) for each antibody.

[13] = target: T1, soluble human GCGR extracellular domain; assay: Octet epitope binning; antibody in solution on GCGR ECD held by immobilized 4F8 (competitor)
Description: as §1

[14] = target: T1, soluble human GCGR extracellular domain; assay: Octet epitope binning; antibody in solution on GCGR ECD held by immobilized 1C1 (competitor)
Description: as §1

[15] = target: T1, soluble human GCGR extracellular domain; assay: Octet epitope binning; antibody in solution on GCGR ECD held by immobilized 1A2 (competitor)
Description: as §1

[16] = target: T1, soluble human GCGR extracellular domain; assay: Octet epitope binning; antibody in solution on GCGR ECD held by immobilized 13G9 (competitor)
Description: as §1

T1 sequence (P47871 26-136 limits assumed): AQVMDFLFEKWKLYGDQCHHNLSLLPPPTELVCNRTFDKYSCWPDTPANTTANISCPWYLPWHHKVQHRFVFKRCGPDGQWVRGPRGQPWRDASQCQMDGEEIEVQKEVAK
Chain of full-length human GCGR on CHO cells (P47871 26-477): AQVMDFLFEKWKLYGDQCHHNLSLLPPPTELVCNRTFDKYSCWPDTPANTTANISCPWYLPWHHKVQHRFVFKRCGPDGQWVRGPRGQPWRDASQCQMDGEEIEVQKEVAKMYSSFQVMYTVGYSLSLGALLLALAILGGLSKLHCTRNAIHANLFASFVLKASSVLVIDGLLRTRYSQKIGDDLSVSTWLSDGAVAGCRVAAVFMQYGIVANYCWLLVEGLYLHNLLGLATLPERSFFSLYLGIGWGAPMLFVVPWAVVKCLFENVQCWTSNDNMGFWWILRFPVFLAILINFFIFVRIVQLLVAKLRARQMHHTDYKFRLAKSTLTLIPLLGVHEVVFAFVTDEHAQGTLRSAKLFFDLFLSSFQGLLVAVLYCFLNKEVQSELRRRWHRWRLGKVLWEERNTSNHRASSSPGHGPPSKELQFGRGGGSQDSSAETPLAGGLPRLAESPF

B4: anti-GCGR antibody 4F8 (antibody, V domains shown)
VH: QVQLQQSGAELVRPGTSVTMSCKAAGYTFSNYWIGWVKQRPGHGLEWIGDIYPGGFYDNYNDKFKGKATLTTDTSSSTAYMQLSSLTSEDSAIYYCTRSGGLPGAGFTYWGQGTLVTVSA
VL: DVLMTQTPLSLPVSLGDQASISCRSSQHIVYSDGNTYLEWYLQKPGQSPKLLIYKVSNRFSGVPDRFSGSGSGTDFTLEISRVEAEDLGVYYCFQGSHVPWTFGGGTKLEIK
notes: mouse hybridoma monoclonal antibody
cAMP assay-3 IC50 [8]: 3.84 nM | Kd [12]: 0.5 nM

B5: anti-GCGR antibody 1C3 (antibody, V domains shown)
VH: EVQLQQSGPELVKPGASVKMSCKASGYTFTSSVMHWVKQKPGQALEWIGYINPYNDGTKYNENFKGKATLTSDRSSTTAYMELSSLTSEDSAVYYCVTGAGYDRGPMAMDYWGQGTSVTVSS
VL: NIVLTQSPASLAVSLGQRATISCRASESVDSYGDSFVHWYQQKPGQPPKLLIYFASNLESGVPARFSGSGSRTDFTLTIDPVEADDTATYYCQQNNEVPFTFGSGTKLELK
notes: as for B4
cAMP assay-1 IC50 [8]: 6.42 nM | cAMP assay-2 IC50 [8]: 13.6 nM | Kd [12]: 1.4 nM

B6: anti-GCGR antibody 1C1 (antibody, V domains shown)
VH: EVQLQQSGPELVKPGATVKMSCKASGYTFTRNVIHWVKQKPGQGLEWIGYINPYNDGAKYNAKFKGKATVTSDKSSSTAYMELSSLTSEDSAVYYCARWGNYEDFAMDYWGQGTSVTVSS
VL: NIVLTQSPPSLAVSLGQRATISCRASESVDIYGNSYMHWYQQKPGQPPKLLIYLASNLESGVPARFSGSGSRTEFSLTIDPVEAGDAATYYCQQNNEDPFTFGGGTKLEIK
notes: as for B4
cAMP assay-2 IC50 [8]: 14.3 nM | Kd [12]: 1.9 nM

B7: anti-GCGR antibody 1H2 (antibody, V domains shown)
VH: QVQLQQPGAELVKPGASVKMSCKVSGYTFTSYWITWVKQRPGQGLEWIGDIHPGGGDTNYNKKFKSKATLTVDTSSSTAYMQLSSLTSEDSAVYHCTSDDNYVGFTYWGQGTLVTVSA
VL: B4 VL with H28T, V30I, Y31H, K50I, E79K
notes: as for B4
cAMP assay-1 IC50 [8]: 3.78 nM | Kd [12]: 3.7 nM

B9: anti-GCGR antibody 5B11 (antibody, V domains shown)
VH: QVQLQQSGAELVKPGASVKLSCKASGNTFTSHWMHWVKQRPGQGLEWIGMSHPNSGSSNYSGKFKSKATLTVDRSSSTAYMQLNSLTSEDSAVYYCARTDYDYDGDYWGQGTTLTVSS
VL: DVVLTQTPLSLPVNIGDQASISCKSSKSLLNSDGLTYLDWYLQKPGQSPQLLIYLVSNRFSGVPDRFSGSGSGTDFTLKISRVEADDLGVYYCFQSNFLPLTFGAGTKLELK
notes: as for B4
Shift on Octet by Antibody in Solution (nm) [1]: < 0.05 nm | Shift on Octet by Antibody in Solution (nm) [2]: < 0.05 nm | Shift on Octet by Antibody in Solution (nm) [3]: < 0.05 nm | Shift on Octet by Antibody in Solution (nm) [4]: < 0.05 nm | Shift on Octet by Antibody in Solution (nm) [5]: < 0.05 nm | Shift on Octet by Antibody in Solution (nm) [6]: < 0.05 nm | Shift on Octet by Antibody in Solution (nm) [7]: < 0.05 nm | cAMP assay-1 IC50 [8]: 7.22 nM | Shift on Octet by Antibody in Solution (nm) [9]: < 0.05 nm | Shift on Octet by Antibody in Solution (nm) [10]: < 0.05 nm | Shift on Octet by Antibody in Solution (nm) [11]: < 0.05 nm | Kd [12]: 1.2 nM | Shift on Octet by Antibody in Solution (nm) [13]: < 0.05 nm | Shift on Octet by Antibody in Solution (nm) [14]: < 0.05 nm | Shift on Octet by Antibody in Solution (nm) [15]: < 0.05 nm | Shift on Octet by Antibody in Solution (nm) [16]: < 0.05 nm

B10: anti-GCGR antibody 3H5 (antibody, V domains shown)
VH: QVQLQQSGAELVKPGASVRLSCKASGNTFTNYWMHWVKQRPGQGLEWIGMIHPNSGSTHYNEKFKNKATLTVDKSSNTAYMQLSGLTSEDSAVYYCGATADYVMDYWGQGTSVTVSS
VL: B9 VL with V2I, S26T, L35F, Y54N, D75E, T77I, D86E
notes: mouse hybridoma monoclonal antibody; also called 3H-15
Shift on Octet by Antibody in Solution (nm) [1]: < 0.05 nm | Shift on Octet by Antibody in Solution (nm) [2]: < 0.05 nm | Shift on Octet by Antibody in Solution (nm) [3]: < 0.05 nm | Shift on Octet by Antibody in Solution (nm) [4]: < 0.05 nm | Shift on Octet by Antibody in Solution (nm) [5]: < 0.05 nm | Shift on Octet by Antibody in Solution (nm) [6]: < 0.05 nm | Shift on Octet by Antibody in Solution (nm) [7]: < 0.05 nm | cAMP assay-1 IC50 [8]: 24.6 nM | Shift on Octet by Antibody in Solution (nm) [9]: < 0.05 nm | Shift on Octet by Antibody in Solution (nm) [10]: < 0.05 nm | Shift on Octet by Antibody in Solution (nm) [11]: < 0.05 nm | Kd [12]: 2.2 nM | Shift on Octet by Antibody in Solution (nm) [13]: < 0.05 nm | Shift on Octet by Antibody in Solution (nm) [14]: < 0.05 nm | Shift on Octet by Antibody in Solution (nm) [15]: < 0.05 nm | Shift on Octet by Antibody in Solution (nm) [16]: < 0.05 nm

Next, values leading:

Shift on Octet by Antibody in Solution (nm) [1]: < 0.05 nm | Shift on Octet by Antibody in Solution (nm) [2]: < 0.05 nm | Shift on Octet by Antibody in Solution (nm) [3]: < 0.05 nm | Shift on Octet by Antibody in Solution (nm) [4]: < 0.05 nm | Shift on Octet by Antibody in Solution (nm) [5]: < 0.05 nm | Shift on Octet by Antibody in Solution (nm) [6]: < 0.05 nm | Shift on Octet by Antibody in Solution (nm) [7]: < 0.05 nm | cAMP assay-1 IC50 [8]: 6.42 nM | cAMP assay-2 IC50 [8]: 12.3 nM | cAMP assay-3 IC50 [8]: 2.07 nM | Shift on Octet by Antibody in Solution (nm) [9]: < 0.05 nm | Shift on Octet by Antibody in Solution (nm) [10]: < 0.05 nm | Shift on Octet by Antibody in Solution (nm) [11]: < 0.05 nm | Kd [12]: 0.22 nM | Shift on Octet by Antibody in Solution (nm) [13]: < 0.05 nm | Shift on Octet by Antibody in Solution (nm) [14]: < 0.05 nm | Shift on Octet by Antibody in Solution (nm) [15]: < 0.05 nm | Shift on Octet by Antibody in Solution (nm) [16]: < 0.05 nm
B1: anti-GCGR antibody 6B5 (antibody, V domains shown)
VH: QVQLQQSGTELVRPGTSVKISCKASGFTFTNHWLGWVKQRPGHGLEWIGDIYPGGYYINYNEKFKGKATLTADTSSSTAYMQLSSLTSEDSAVYFCARHTNYGSDYWGQGTTLTVSS
VL: B4 VL with T7I, H28S, Y31D, D33Y, Y37F, F60L, S70T, S72A, E79K, V90I
notes: mouse hybridoma monoclonal antibody; also called 61B5

cAMP assay-1 IC50 [8]: 16 nM | cAMP assay-3 IC50 [8]: 6.48 nM | Kd [12]: 0.57 nM
B2: anti-GCGR antibody 14F4 (antibody, V domains shown)
VH: QVQLQQSGAELVRPGTSVNMSCKATGYTFTNYWIGWVKQRPGHGLEWIGDIFPGGFYSNYNEKFKGKATLTTDTSSSTGYMQLSSLTSEDSAIYYCARIWDRGFDYWGQGTTLTVSS
VL: B4 VL with T7S, H28S, Y31D, D33Y, E79K, L88R, V90L, W101Y
notes: mouse hybridoma monoclonal antibody; also called 141F4

cAMP assay-1 IC50 [8]: 24.6 nM | cAMP assay-3 IC50 [8]: 1.32 nM | Kd [12]: 0.8 nM
B3: anti-GCGR antibody 14E9 (antibody, V domains shown)
VH: QVQLQQSGAELVRPGTSVKMSCKAAGYTFTNYWIGWVKQRPGHGLEWIGDISPGNYYTNYNAKFKDKVSLTADTSSSTAYMQLSSLTSEDSAIYYCARYDEFAYWGQGTLVTVSA
VL: B4 VL with P12S, H28S, Y31H, E79K
notes: mouse hybridoma monoclonal antibody; also called 13E9

cAMP assay-1 IC50 [8]: 7.22 nM | cAMP assay-3 IC50 [8]: 0.99 nM | Kd [12]: 0.25 nM
B8: anti-GCGR antibody 13G9 (antibody, V domains shown)
VH: QVQLQQSGAELVRPGTSVKISCKASGYTFTNYWLGWVKQRPGHGLEWIGDIYPGGDYNNYNGKFKGKATLTADTSSSTAYIQLSSLTSEDSAVYFCVRSDDGYSWGQGTTLTVSS
VL: B4 VL with H28S, Y31D, D33Y, L42Q, K50T, S61A, E79K, V99I, L109V
notes: mouse hybridoma monoclonal antibody; also called 13G19
